Measured values: the NTF2 design screens of Basanta et al. (2020)

Assay: protease stability score; higher = more stable; yeast display proteolysis, trypsin and chymotrypsin;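 further: relative to predicted unfolded state with 0 unfolded-like and 1 meaning tenfold more protease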

Sequence | protease stability score
SEEEKEAEEAMKRSLRSLETGDEELLDEMADPDVRLHVGEFQLIGRESFRKHQRRLTKRFKNMRFHIHRMEVYGEKLSIFGRFHWDGVDTETEIIEVKINGRWFLREVHIR | 0.639
SERDEVAHLAFEYLINTHQTGDWRLFKEYLDPNVRFHVGDKFFHGRESVSKFFEEEMHRLGFKHIEMEHFEQQGDYLTINLTVRVDGQEYKLIYFALKVDGRWILRSITFE | 1.38
DEHERDAHRFIEHLWRILATGDEEELRKLFDPDAKHHDENELYHGREKVTKFISHRFKHLGIDHVEFRLTDLEVQGDKVISRILVIQRVNGVEYRIDMLFIFHKINGRWLIKSLEVH | 1.36
DEDEESATKFTRELIHHTRTGDEESLKELADPNVRIDFNGVEIHGMEWWLKLHVHLGAKIILRLKDIETIGDKVHIHGEREIRVNGKNIRTKIRILVEKVDGRWVLKHEELG | 1.21
DEEEKIARELSRLLAEIIETGDEDILLRMVDPHARFIINGKTIIGRETMWELWRRHVEKLGVSRIISRLRRIHVIDGRVHVHIEETFNGRTQEVRVDYMKIDGVWLIHEISIE | 1.35
HEEEEEIVRHLEKLLRDLWTGDWDDIEHNLDPNVRIEYGEKTRVGREKFVKTFFDMGMKLRHVRINEFHVVDGRLHVDTRIDGNFNGVEFRTRVEIIAVKINGKWVLHSVHIL | 1.22
DEEEKLARHWMEVWHHAEHTGDFEEFNRLLDPHTRIEINFDGQRVELHGRHEYERFFRELGMEIRRIRLRDLHVVDGKWHIDGERDGEYDGKRIDSQIIIIYRVIDGRVKEIRKDDR | 0.816
SEDEQQALEIIRQWVEFVRTGDEDSVRRLLDPNVRYEVNGREFHGRELVVRILWEIVYHLGVKHVDNKVEHMEIQGEFVKVETTMILRYNGRTLYIDTRIIIFKIDGRWVFRSIEEK | 1.63
SEDEEIVKKMSKEELEFWRTGNEHELSKLFDPDVLLFVGEKIFHGREVFKHFKERVDHFHEFRDKHIQVIDGRIHIDSEVNSRFNGRQLSEDVRIQALKFDGRWHYKSIHML | 0.336
DEDEEEWHRFLELVHHFLRTGDWRRILDLIDPRALVHVGDKTFHGRHAIEHLLRHIHDRIPGMKQSLIIDHHDSQGDKIHLDVTLDLHFNGVEYHLRERTLELKINGKWVEKVREVD | 0.821
DDRHEENKEITRRQFELFETGDEEILHHLADPHVRLRIDGQHNHGREELERSLRELRKELGANVLILRRIRVIGDKMEVEGEFDYNGRNFHATFRFNVIDGRLHSMSIEIR | 0.832
DRERRHEEQLYRDLIHAWFTGDEEWLRKYADPHVRVEIGDKLRHGMEWLAKMREDVHRHLGIDHIHIHDHYFFDGRVHMDFRINIGDKHHNLHLHIVNVDGKVRSFRFEIH | 1.09
SREEEEATHAVNRWMQLFITGDEESLRELADPDDRINIDGKDFHGREEFEMFMRLFVERFKNLRVELEDTRITVQGDKITVRFKIHFNINGVQTKTEVIIFSTKVNGRWHFKSEEVRHR | 0.415
SEDDEHLREFIEIRLHAIETGDWRRMEHLFDPNVRFEFNGVELHGMETVARRLSRIDHEWSEIRINRHRLFNGVLHLDTRLDLRVHVDGKEIRVEHTTRIVILKFNGRWLITEMTIE | 0.748
DDDHKVAEKMNDTFLRLFLTGDFERLWELADPHVRILFNGVEFHGREQMSTVIEHHLRQMRVHDVTIEHITWQGDKLHVHSILRTRVGDKKVDDHIEVNILKVDGKWIVKEVKIL | 2.01
DEDRKIFKLVFEITKHAWETGDEEHLDRLLDPNTRIEIGDKILHGREHIEEWVDRVDHLHLHHFRLDDYRYQGDKAIIHGHVNGTSVIDGRSERYTSTIDFIVLKVNGRWRLHSVRVT | 1.41
DEDEETAIRVVKEFWKAVMTGDERHLKEYFDPHTRLDVDGQDQHGREDLTEFMFHMRVERTTIHNWRLQGDYVYLHVHVVGQINGKSKETEFYIVVFKINGRWSIHHITIR | 1.33
SEEEKELEEALKIQEEFWRTGDEHSLRELADPHARVHIDGRDLHGREFWSMLSNQLRIEHIEVKSVELVDGRLEADVHVTGRYNGRDVKTRMRLEIVKINGVWYLESTEIN | 0.407
SEEEESIRHSWEIFETVLKTGDWTDYEKLFDPNDRTEIGDKRLHGMDLLIHILRRLGIKHNHAEMRIRSFEMIGDKAIIDGEIHVVLDFNGREVRSSSEILIIDRKINGRWLVESMHVI | 1.21
SDLHRDIQRLLEQVLRSRETGDEDHLEKYADPHARSVFDGVEFHGWEELLRVIRHIRIRRLRLTHIEVQGDKVELDLELDGEINGQRVRVHLEIHSEKINGRWIMTEVVIE | 1.21
DEEEEHLRKMTKLLWDQIHTGDEKDFLRLADPNARFEVEINGRKYEAHGREEIKHMLHDILELLGIDHVRLRDLELQGNKVILHSDTHVNGQDSKMRIEILIVNGRLKSFKIQTL | 0.995
DELEEELDQFQKLMVESSKTGDEDTEKKLADPNVRVDINGVILHGMENFVEFMRHWRIKHIHNKEVRFINGRAHVTGDVEGHVNGRDTRTRVTLIIIKINGRWFIEEVKFD | 1.37
DEWEESHKLVSKMIADTDETGDERIKRRLLDPHARLIVDGREYHGREHMDKIWKYFGLDRIHVEVRRMHVYGDKVSLHVHSIYNGREVEVHIIIHKVDGRWHLHSVDIQ | 0.596
DEDEERNEHFLRLYEKITTTGDEDIAKELIDPNARLHVNGKDIHGRESVVKWLKELRIHHLKLRHFRIVGEKAENDISYDVEVDGRTNRRDVHIYLLKIDGRWVIHSIEVR | 1.84
SEEEHLLKFFLDVLMDLHSTGDERKLYELFDPNVRIEYDGKETHGRERAREQFQEMRVRVEHVHIKDLTLQGDKVIIDTKVDMTIHIDGKTIREDRKLQVDFDKVDGRWTVHELIFR | 1.13

Sequence | protease stability score
DEDTELDETISREIIHAEKTGNEDWLTKLIDPNPRIEINGRIFHGMDFWLKFLKDMGVDHIDVKRDRAYNGVLDMDGYIIVNGREIRTHIHIVIVDGKATHIRIEIR | 1.61
KELERDSREATHTFLRDIKTGDFESLHRLADPTTRMHIGDKEFHGWELLIHVIAEFLRKVPNMRTTLRDERVQGEKVEVRVDIHYNGQDRHIELEIHKVNGKWWIKVMEFE | 0.88
DEIHEDFDRFLEEYLESLRTGDWKKVEELHDPNTRVDIGDKHVIGMDLLAHLETKDFIKRGARVDMHVRRFEIQGNKIIIHGELRIHYGDKHVRINIHLDIRKINGKWIIRHEEIR | 1.13
SEDHEVARDIMEILLHLYLTGNEEDLKQFFDPHVRLVIGDKNIHGREEVVNHLKRILDRIPNVRVKHFTLHDIRIIGDKIYLNTEIHVKINGRDHRSETRWVILKVDGVWHLHSVEVG | 2.05
REDEKLFEEVLRELVKWLTTGDEKQMRDLFDPNARREVNGVEVHGWEEFLRHVREDRKRYDHVKDIEIHHIDIQGDKLEINVTLVGHIDGKEDVIIFTILLRKVNGKWIVKEIQFH | 1.52
DEEKHILDRYWEEWLHALITGDEERLMELIDPNAKHVFNGKELHGRESLTELLRRLGMEIKDIRDHDLKVIGDKLHIDTRIDGIINGRQTTIRMHIIATKIDGKWVHTKLEVR | 1.23
SEDEEAIRHALRIFEEVLQTGDEHSIENLFDPNTRIDINGKHLHGWHKLEEWLSRFDHLEVHVHIHSSNVFDGRIHNDTRVKMHLYINGKIIELHQETHIISKKVNGRWYVKMIIIR | 1.17
DEEEEILRTFIRLMHEAWLTGDWKTFEEMLDPHARLHINGKDLHGREQMARRIEELGIKHVEDKDMETQGNKIHLKQIVYVNGRTFELRQFIIKVNGRWVIQHVEVITR | 1.38
SEEEKRMTEDAEHFWRRFLTGDWRTLSRLIDPHVIIHINGVDLHGRHDAHREMEEHAEQFKNIKVHIDHIDVVGDKLHVDVTININGRRFKEEIIIVMFNGRVKELEVRTH | 1.61
DEDKEILHKMVEILRHALQTGDEDRLSEMFDPNVRLEINGREEWGREIFRDKHRQLGVDHLHIIIRRVHIQGEYAHIDTEYRIHVNGKTLETRVEVIALKIDGKWLIRQVIFT | 1.14
DEDERETRFIIKLLLETIQTGDEKTFEELLDPSVRLVVGDKIIHGRDVLSEFFSHARFHRIEIHNMESQGDKAHIDIRVDGKFNGKRKTTEVNLHIEKFDGRWRIKEFRIH | 2.08
DETTELVHEVWRVHLESLMTGDFDKFHELADPNAKVDVHYDGRRDDNHGREKLSHQIKRILQEWRVTIRINREDAIGNKLHVDSDLRVNYDGVEIRVRLLSIIVVVNGRFKSIEYHVL | 1.29
DEEERLLLEWVRLFLTAWETGDEKLQEKLMDPHARTDFNGVQLHGREEYSRFLSQLRIRRFHVRDESIRIVGNKAESEVDGEVEGEVNGQRFKQHTEIEIHSEKINGRWLWKSLTIRIK | 1.5
SEDEEEERRVEKLWSKALHTGDEEELHRLADPNVLLNFDGVEYIGREEFLKHFRRLVHEARIEFIILKDSKLIDGRLHIHGIDLVTQGDKRIELKSEVIVLKINGRWIIHHIHIH | 0.75
DEDEKERKRDLDKLRHFLETGNEQHLLEMLDPHARVTVGDKELIGREDFSKWMLEMRIHHDEIKRLEIYNGRIHVDYEMDVEVGDKRFRTDFRITARKVNGRWILHSMEVK | 1.54
TEEHEEARRAMKIIVDLLDTGDWKTISRYFDPNVRFEVGDKTYHGREEVLNRFIELGHSNIDVKLHHMELYGDKVVIDSRMNVDGRTHEIEWHSRKYNGRWRLHELHVR | 1.12
DEDHKLLEKFYRIWVEMFKTGDEERWKHLADPDARSDINGVDFIGRDTVSKIMESFLRKMGFDHMEIRRFDFQGEKIKSDVVLDFNGRDVRTEIHIIVVDGRIKEERFRVT | 0.192
DEKEKVVRIAQEIINTIIHTGDERILEEFIDPNVRFYFNGQEFHGRELMSEIEKKHRDRFKNLRIFVEDTHVEVYGEWLRIKVHLRLEIGDKRHELHLDIIALKVNGRWLNKSAELRVE | 1.64
SEDHELLKRELETFIKHLETGDEDILRRLADPHVRLEYNGKEFHGRDRIVEEWVRIAREIRIKVEIHHITYIGDKLEVDTILKIEQGDKRTEFRIEIFIQKVNGQWLLKEIKIK | 1.44
TEEEELEEKIARRFLTIWLTGDEERLRELADPNVRLEIDINGVTLEYHGRDELAHMFDHELKKLGFKHLHLESLRVINGVVHSNVRITFNGQERESKIINIVINGRLHTLILRWE | 1.41
DEKKAKEAAHRLLEAMVTGDPRKLNENADEDVQVEYGDKSYTGREKLNEWAHEFQKRVDHVRIESIHQRGDTATVKVRVEHNGETDTFVLIVEAHNGRAKRIRQETR | 1.1
SEEDEHLRHLAELFVKLLLTGDFNTLHHLLDPHVKFNIGEFESHGMEHLWRAWEEWRFHHISLEDVRVQGDKAHLHFRSTVHYNGRTKRVDTHVEIKVVNGRFKEVHIRIH | 1.59
DEREELSKHITERFIRSVQTGDERVLKELIDPHARVIVDGRRFIGRHVWVKILKDLGIDHLEIEHVDLIGDKARIDSRVDVDGQEHNVKIHLEVINGRIHWIEERIK | 1.04
DEITRELKHIFEEVIRAILTGDWRRLHHLLDPRVRSKFEFENRHVDLHGMETVLHWMERWSQELRVEDFHLNDFRVIGDYIVLDGRVQNRQGDKKIDVRVELIVFVVNGKVTELRETSR | 1.17
SEEERESKEATKLHLDALRTGNEELLRHLFDPDVKVDVNGKHLHGWKLLTEVLQRMGVKHVELTDFRVYDGRIDLREKWDVDGKEIEVFIHARKFNGQWHTESIHIK | 1.15
